Test results from US20250019439A1 (Adimab, published 2025).

Tests used:
ADI-22523 IgG = molecular target: T1, ADI-22523 IgG; test: BLI; tip anti-ID IgG, solution ADI-22523 IgG
T1 construct: anti-CD3 IgG
Procedure, shortened: (§1)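 Bio-layer interferometry with anti-ID IgG loaded on AHC tips. KD (koff/kon) from 1:1 binding model fit; avid format.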

ADI-26920 IgG = molecular target: T2, ADI-26920 IgG; test: SPR Carterra avidity, yeast anti-ID, *koff limit
T2 construct: anti-CD3 IgG
Procedure, shortened: (§2)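 Surface plasmon resonance on a Carterra LSA at 25° C, HBSTE buffer. The anti-CD3 antibody is Fc-captured (100 nM, 5 min) and the anti-idiotype antibody serves as analyte; dissociation lasts 300s and the surface is regenerated with 10 mM glycine pH 1.7.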

ADI-26924 = molecular target: T3, ADI-26924; test: SPR Carterra avidity, yeast anti-ID, *koff limit
T3 construct: anti-CD3 antibody made in CHO cells, captured by anti-human Fc
T3 sequence (VH, as listed by the source, chain 1 of 2): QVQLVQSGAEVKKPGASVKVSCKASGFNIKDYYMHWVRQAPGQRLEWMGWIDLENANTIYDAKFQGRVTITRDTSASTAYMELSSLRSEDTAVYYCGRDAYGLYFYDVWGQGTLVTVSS
T3 sequence (VL, as listed by the source, chain 2 of 2): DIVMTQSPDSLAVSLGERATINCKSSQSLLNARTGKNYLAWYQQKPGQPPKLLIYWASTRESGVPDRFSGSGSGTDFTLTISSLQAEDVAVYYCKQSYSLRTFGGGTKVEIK
Procedure, shortened: as §2

ADI-26919 = molecular target: T4, ADI-26919; test: SPR Carterra avidity, yeast anti-ID, *koff limit
T4 construct: anti-CD3 antibody made in CHO cells, captured by anti-human Fc
T4 sequence (VH, as listed by the source limits assumed, chain 1 of 2): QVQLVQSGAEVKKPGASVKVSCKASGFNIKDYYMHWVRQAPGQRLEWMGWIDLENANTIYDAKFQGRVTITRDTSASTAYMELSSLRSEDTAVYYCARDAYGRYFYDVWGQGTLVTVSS
Procedure, shortened: as §2

ADI-74966 = molecular target: T5, ADI-74966; test: SPR Carterra avidity, yeast anti-ID
T5 construct: pH-dependent anti-CD3 antibody made in CHO cells
Procedure, shortened: as §2

ADI-76357 = molecular target: T6, ADI-76357; test: SPR Carterra avidity, yeast anti-ID
T6 construct: anti-CD3 antibody made in CHO cells, captured by anti-human Fc
T6 sequence (VH, as listed by the source, chain 1 of 2): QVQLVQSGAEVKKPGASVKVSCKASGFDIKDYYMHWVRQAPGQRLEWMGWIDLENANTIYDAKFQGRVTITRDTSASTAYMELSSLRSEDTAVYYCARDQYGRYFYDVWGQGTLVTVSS
T6 sequence (VL, as listed by the source, chain 2 of 2): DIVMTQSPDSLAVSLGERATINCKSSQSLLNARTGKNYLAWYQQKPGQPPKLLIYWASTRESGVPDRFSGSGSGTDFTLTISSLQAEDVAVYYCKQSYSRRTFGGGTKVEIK
Procedure, shortened: as §2

ADI-26916 IgG = molecular target: T7, ADI-26916 IgG; test: SPR Carterra avidity, yeast anti-ID
T7 construct: anti-CD3 IgG
T7 sequence (VH, as listed by the source, chain 1 of 2): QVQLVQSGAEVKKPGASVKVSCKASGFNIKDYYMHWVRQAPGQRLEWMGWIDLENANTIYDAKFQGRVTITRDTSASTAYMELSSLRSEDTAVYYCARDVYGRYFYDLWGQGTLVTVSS
Procedure, shortened: as §2

ADI-26913 IgG = molecular target: T8, ADI-26913 IgG; test: SPR Carterra avidity, yeast anti-ID
T8 construct: anti-CD3 IgG
T8 sequence (VH, as listed by the source limits assumed, chain 1 of 2): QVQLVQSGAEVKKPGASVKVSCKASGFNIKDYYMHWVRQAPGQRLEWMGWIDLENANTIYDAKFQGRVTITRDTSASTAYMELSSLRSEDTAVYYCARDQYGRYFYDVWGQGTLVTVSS
Procedure, shortened: as §2

ADI-48592 = molecular target: T9, ADI-48592; test: SPR Carterra avidity, yeast anti-ID
T9 construct: pH-dependent anti-CD3 antibody made in CHO cells
Procedure, shortened: as §2

ADI-76359 = molecular target: T10, ADI-76359; test: SPR Carterra avidity, yeast anti-ID
T10 construct: anti-CD3 antibody made in CHO cells, captured by anti-human Fc
Procedure, shortened: as §2

ADI-26906 IgG = molecular target: T11, ADI-26906 IgG; test: SPR Carterra avidity, yeast anti-ID
T11 construct: anti-CD3 IgG
Procedure, shortened: as §2

ADI-26943 = molecular target: T12, ADI-26943; test: SPR Carterra avidity, yeast anti-ID
T12 construct: anti-CD3 antibody made in CHO cells, captured by anti-human Fc
T12 sequence (VH, as listed by the source, chain 1 of 2): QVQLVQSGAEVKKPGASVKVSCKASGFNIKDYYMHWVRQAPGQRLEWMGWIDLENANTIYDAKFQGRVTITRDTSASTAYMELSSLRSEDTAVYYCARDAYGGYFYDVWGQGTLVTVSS
T12 sequence (VL, as listed by the source, chain 2 of 2): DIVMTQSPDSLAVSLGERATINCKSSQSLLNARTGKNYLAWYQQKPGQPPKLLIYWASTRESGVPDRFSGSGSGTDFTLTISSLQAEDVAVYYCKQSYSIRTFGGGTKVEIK
Procedure, shortened: as §2

ADI-22523 Fab = molecular target: T13, ADI-22523 Fab; test: BLI; tip anti-ID IgG, solution ADI-22523 Fab
T13 construct: anti-CD3 Fab by papain digestion of the IgG
Procedure, shortened: as §1

ADI-26915 = molecular target: T14, ADI-26915; test: SPR Carterra, yeast anti-ID
T14 construct: anti-CD3 antibody made in CHO cells, captured by anti-human Fc
T14 sequence (VH, as listed by the source, chain 1 of 2): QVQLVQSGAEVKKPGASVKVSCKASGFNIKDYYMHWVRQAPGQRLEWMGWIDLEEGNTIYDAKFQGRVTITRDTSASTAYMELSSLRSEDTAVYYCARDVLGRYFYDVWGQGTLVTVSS
Procedure, shortened: as §2

CTL-62227 = molecular target: T15, CTL-62227; test: SPR Carterra, yeast anti-ID
T15 construct: also called odronextamab
T15 sequence (VH, as listed by the source, chain 1 of 2): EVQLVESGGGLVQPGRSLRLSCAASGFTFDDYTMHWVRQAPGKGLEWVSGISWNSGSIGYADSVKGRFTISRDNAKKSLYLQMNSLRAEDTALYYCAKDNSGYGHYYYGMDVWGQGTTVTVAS
T15 sequence (VL, as listed by the source, chain 2 of 2): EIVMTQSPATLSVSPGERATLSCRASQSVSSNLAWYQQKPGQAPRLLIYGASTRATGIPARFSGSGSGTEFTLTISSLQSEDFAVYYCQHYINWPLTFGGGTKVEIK
Procedure, shortened: as §2

CTL-62223 = molecular target: T16, CTL-62223; test: SPR Carterra, yeast anti-ID
T16 construct: also called mosunetuzumab
Procedure, shortened: as §2

ADI-48576 = molecular target: T17, ADI-48576; test: SPR Carterra, yeast anti-ID
T17 construct: pH-dependent anti-CD3 antibody made in CHO cells
Procedure, shortened: as §2

ADI-76358 = molecular target: T18, ADI-76358; test: SPR Carterra, yeast anti-ID
T18 construct: anti-CD3 antibody made in CHO cells, captured by anti-human Fc
T18 sequence (VH, as listed by the source, chain 1 of 2): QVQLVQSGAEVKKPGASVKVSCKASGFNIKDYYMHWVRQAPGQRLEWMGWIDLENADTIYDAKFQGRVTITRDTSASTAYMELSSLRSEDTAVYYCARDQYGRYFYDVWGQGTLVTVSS
Procedure, shortened: as §2

ADI-74965 = molecular target: T19, ADI-74965; test: SPR Carterra, yeast anti-ID
T19 construct: pH-dependent anti-CD3 antibody made in CHO cells
Procedure, shortened: as §2

ADI-76362 = molecular target: T20, ADI-76362; test: SPR Carterra, yeast anti-ID
T20 construct: anti-CD3 antibody made in CHO cells, captured by anti-human Fc
T20 sequence (VH, as listed by the source, chain 1 of 2): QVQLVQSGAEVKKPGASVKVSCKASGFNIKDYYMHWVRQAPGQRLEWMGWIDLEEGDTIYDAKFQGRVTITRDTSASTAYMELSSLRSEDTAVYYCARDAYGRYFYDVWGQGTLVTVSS
Procedure, shortened: as §2

ADI-50024 = molecular target: T21, ADI-50024; test: SPR Carterra, yeast anti-ID
T21 construct: anti-CD3 antibody made in CHO cells, captured by anti-human Fc
Procedure, shortened: as §2

ADI-74967 = molecular target: T22, ADI-74967; test: SPR Carterra, yeast anti-ID
T22 construct: pH-dependent anti-CD3 antibody made in CHO cells
Procedure, shortened: as §2

CTL-62228 = molecular target: T23, CTL-62228; test: SPR Carterra, yeast anti-ID
T23 construct: also called glofitamab
Procedure, shortened: as §2

ADI-26912 = molecular target: T24, ADI-26912; test: SPR Carterra, yeast anti-ID
T24 construct: anti-CD3 antibody made in CHO cells, captured by anti-human Fc
Procedure, shortened: as §2

ADI-26921 IgG = molecular target: T25, ADI-26921 IgG; test: SPR Carterra, yeast anti-ID
T25 construct: anti-CD3 IgG
T25 sequence (VH, as listed by the source limits assumed, chain 1 of 2): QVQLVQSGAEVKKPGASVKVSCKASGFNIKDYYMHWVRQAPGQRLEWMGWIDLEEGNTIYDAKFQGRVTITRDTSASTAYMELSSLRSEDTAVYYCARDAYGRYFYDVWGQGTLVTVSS
Procedure, shortened: as §2

ADI-70327 = molecular target: T26, ADI-70327; test: SPR Carterra, yeast anti-ID
T26 construct: anti-CD3 antibody made in CHO cells, captured by anti-human Fc
Procedure, shortened: as §2

ADI-26909 = molecular target: T27, ADI-26909; test: SPR Carterra, yeast anti-ID
T27 construct: anti-CD3 antibody made in CHO cells, captured by anti-human Fc
T27 sequence (VH, as listed by the source limits assumed, chain 1 of 2): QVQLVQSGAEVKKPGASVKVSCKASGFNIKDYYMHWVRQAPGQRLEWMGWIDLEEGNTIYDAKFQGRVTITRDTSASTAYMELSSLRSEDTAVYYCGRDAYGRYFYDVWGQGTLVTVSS
Procedure, shortened: as §2

ADI-70326 = molecular target: T28, ADI-70326; test: SPR Carterra, yeast anti-ID
T28 construct: anti-CD3 antibody made in CHO cells, captured by anti-human Fc
Procedure, shortened: as §2

ADI-76360 = molecular target: T29, ADI-76360; test: SPR Carterra, yeast anti-ID
T29 construct: anti-CD3 antibody made in CHO cells, captured by anti-human Fc
Procedure, shortened: as §2

ADI-48650 = molecular target: T30, ADI-48650; test: SPR Carterra, yeast anti-ID
T30 construct: pH-dependent anti-CD3 antibody made in CHO cells
T30 sequence (VH, as listed by the source, chain 1 of 2): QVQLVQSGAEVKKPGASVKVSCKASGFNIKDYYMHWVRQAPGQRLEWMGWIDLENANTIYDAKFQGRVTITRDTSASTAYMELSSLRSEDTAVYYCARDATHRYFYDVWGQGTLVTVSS
T30 sequence (VL, as listed by the source, chain 2 of 2): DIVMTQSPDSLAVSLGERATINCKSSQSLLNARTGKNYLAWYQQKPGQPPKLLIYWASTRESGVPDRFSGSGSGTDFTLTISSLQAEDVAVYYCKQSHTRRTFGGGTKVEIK
Procedure, shortened: as §2

CTL-62240 = molecular target: T31, CTL-62240; test: SPR Carterra, yeast anti-ID
T31 construct: also called ONO-4685
T31 sequence (VH, as listed by the source, chain 1 of 2): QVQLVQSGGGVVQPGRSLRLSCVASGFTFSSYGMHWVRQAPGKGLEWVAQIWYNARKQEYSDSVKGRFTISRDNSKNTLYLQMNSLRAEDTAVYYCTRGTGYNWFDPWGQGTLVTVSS
T31 sequence (VL, as listed by the source, chain 2 of 2): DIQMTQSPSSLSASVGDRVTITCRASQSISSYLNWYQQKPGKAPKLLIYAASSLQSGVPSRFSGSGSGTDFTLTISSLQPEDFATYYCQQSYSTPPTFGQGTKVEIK
Procedure, shortened: as §2

ADI-67447 = molecular target: T32, ADI-67447; test: SPR Carterra, yeast anti-ID
T32 construct: anti-CD3 antibody made in CHO cells, captured by anti-human Fc
T32 sequence (VH, as listed by the source limits assumed, chain 1 of 2): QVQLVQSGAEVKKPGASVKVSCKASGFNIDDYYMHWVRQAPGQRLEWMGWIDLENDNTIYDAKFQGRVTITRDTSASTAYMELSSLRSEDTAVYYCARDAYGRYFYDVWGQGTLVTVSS
Procedure, shortened: as §2

ADI-70330 = molecular target: T33, ADI-70330; test: SPR Carterra, yeast anti-ID
T33 construct: anti-CD3 antibody made in CHO cells, captured by anti-human Fc
Procedure, shortened: as §2

ADI-74968 = molecular target: T34, ADI-74968; test: SPR Carterra, yeast anti-ID
T34 construct: pH-dependent anti-CD3 antibody made in CHO cells
Procedure, shortened: as §2

ADI-48587 = molecular target: T35, ADI-48587; test: SPR Carterra, yeast anti-ID
T35 construct: pH-dependent anti-CD3 antibody made in CHO cells
Procedure, shortened: as §2

ADI-67450 = molecular target: T36, ADI-67450; test: SPR Carterra, yeast anti-ID
T36 construct: anti-CD3 antibody made in CHO cells, captured by anti-human Fc
Procedure, shortened: as §2

ADI-67445 = molecular target: T37, ADI-67445; test: SPR Carterra, yeast anti-ID
T37 construct: anti-CD3 antibody made in CHO cells, captured by anti-human Fc
T37 sequence (VH, as listed by the source limits assumed, chain 1 of 2): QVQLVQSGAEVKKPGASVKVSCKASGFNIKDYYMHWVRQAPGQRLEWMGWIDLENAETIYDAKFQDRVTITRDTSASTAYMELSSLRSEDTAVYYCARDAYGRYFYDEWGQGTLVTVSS
Procedure, shortened: as §2

ADI-76361 = molecular target: T38, ADI-76361; test: SPR Carterra, yeast anti-ID
T38 construct: anti-CD3 antibody made in CHO cells, captured by anti-human Fc
T38 sequence (VH, as listed by the source, chain 1 of 2): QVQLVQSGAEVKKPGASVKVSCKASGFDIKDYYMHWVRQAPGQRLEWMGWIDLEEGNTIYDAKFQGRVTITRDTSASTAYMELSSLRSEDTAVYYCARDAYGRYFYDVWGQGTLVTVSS
Procedure, shortened: as §2

B1: ADI-30254 (antibody, V domains shown)
VH: EVQLLESGGGLVQPGGSLRLSCAASGFTFSSYAMSWVRQAPGKGLEWVSTISGSGGSTYYADSVKGRFTISRDNSKNTLYLQMNSLRAEDTAVYYCARLGGRRGSGSSYYYYYGMDVWGQGTTVTVSS
VL: not shown
notes: anti-ID IgG
Kd (ADI-22523 IgG): 3.34 nM
Kd (ADI-26920 IgG): 21 nM
Kd (ADI-26924): 21 nM
Kd (ADI-26919): 33 nM
binding result (ADI-74966): binds
binding result (ADI-76357): binds
Kd (ADI-26916 IgG): 56 nM
binding result (ADI-26913 IgG): binds
binding result (ADI-48592): binds
Kd (ADI-76359): 27 nM
binding result (ADI-26906 IgG): binds
Kd (ADI-26943): 27 nM
Kd (ADI-22523 Fab): 50.3 nM
binding result (ADI-26915): no binding (tested: up to 200 nM)
binding result (CTL-62227): no binding (tested: up to 200 nM)
binding result (CTL-62223): no binding (tested: up to 200 nM)
binding result (ADI-48576): no binding (tested: up to 200 nM)
binding result (ADI-76358): no binding (tested: up to 200 nM)
binding result (ADI-74965): no binding (tested: up to 200 nM)
binding result (ADI-76362): no binding (tested: up to 200 nM)
binding result (ADI-50024): no binding (tested: up to 200 nM)
binding result (ADI-74967): no binding (tested: up to 200 nM)
binding result (CTL-62228): no binding (tested: up to 200 nM)
binding result (ADI-26912): no binding (tested: up to 200 nM)
binding result (ADI-26921 IgG): no binding (tested: up to 200 nM)
binding result (ADI-70327): no binding (tested: up to 200 nM)
binding result (ADI-26909): no binding (tested: up to 200 nM)
binding result (ADI-70326): no binding (tested: up to 200 nM)
binding result (ADI-76360): no binding (tested: up to 200 nM)
binding result (ADI-48650): no binding (tested: up to 200 nM)
binding result (CTL-62240): no binding (tested: up to 200 nM)
binding result (ADI-67447): no binding (tested: up to 200 nM)
binding result (ADI-70330): no binding (tested: up to 200 nM)
binding result (ADI-74968): no binding (tested: up to 200 nM)
binding result (ADI-48587): no binding (tested: up to 200 nM)
binding result (ADI-67450): no binding (tested: up to 200 nM)
binding result (ADI-67445): no binding (tested: up to 200 nM)
binding result (ADI-76361): no binding (tested: up to 200 nM)
